assay: soluble on expression in E. coli; label from the status in PepcDB or PDB records

Sequence | soluble on expression in E. coli
MEGLKLSEAELMIFIHPSQSRNVFQGICRELSSLLFQYNETFDGVLLAYDATVKSKQAKILTGLHPYFGVRVNTRLLLFDPKPKSFVEGKIVKISPESIHVIVLGFSAAVITDVDIREEFKYRVRDGEGSFVSRSHKRHALKLGTMLRLQVQSFDEEVMHIAGSLLPENTGCVKWLEKKSEEALPTDRDHKRRKLA | not soluble
GEADSGDGDSSEYQDGKEFGIGDLVWGKIKGFSWWPAMVVSWKATSKRQAMSGMRWVQWFGDGKFSEVSADKLVALGLFSQHFNLATFNKLVSYRKAMYHALEKARVRAGKTFPSSPGDSLEDQLKPMLEWAHGGFKPTGIEGLKPNNTQP | soluble
MHGKRIALCASRKLDEMTTLIEKQGGTAIIRPAQGTVFSKGSELGEEMRTVIAMRPDWIVFTTGIGFEALLEAADREGMAAQWHRTIKEANVAARGYKTVTALKQIGVTPVAVSEDGTTKGLIAALYGHDFADKNVVVQLYGDTAPALKQFFLEQGALYTELLPYRHIAPDEETLATLYKEIVGREVDAVCFTSAMQVRFFFSFAREKKEIAPLLDAFRTDVVACAVGKVTKEALEEEGVDRVIAPEHERMGAMIVTLARYFGA | not soluble
MNVVSNTQLLEQRIADFFTLSDEHKKARVLLDTLACSCPARIFGGMVRDLGLYGVDGFSSDLDIVIGRSREELFQTLAELPVKQLRFNKFGGIRFRYHDFEFDIWNLNETWAFQEKLIFCEDESSLLNEVA | not soluble
GMTTQTATDFMEIVKGRRSIRNYDTNVKISKEEMTQILEEATLAPSSVNMQPWRFLVIDSEEGKATLAPLAKFNQVQVETSSAVIAVFGDMKAIDQLENIYDTAVEKGLMPQEVRDRQVPAIQGMYENVPASALKDSILIDSGLVSMQLMLVARAHGYDTNPIGGYEKDQIAEAFGMEKDRYVPVMLLSIGKAVDAGYPSVRLPINDIADWK | soluble
MTRLSSGAKLNHPESSVCSPVYSWSTCIRKTSPVLFSSTIFALRRMTAPSAPCAQAPQLTRRWAKIVVENRTGSHFKIQVLHEYTGEQTNDSGYIDFKPDDRITVFEKIYYNTGFFTTGVDNWKVHGTKLIQVETEGTIARNIFGKFFVDGLPYSTGHGAFAKWKKHTLRADDDGQETVIKVFQTEVQFISPSGRSVTTFNTLGENILPFSQNPQKQ | not soluble
HDFASWVSGDSMEPKYHNGSVTLIRETGFDYDGAVYAVVCNSQTYIKRVYLEAEGLRLKYKDIFISYDEDPRVVRIIIGNFIPL | not soluble
MAPAPEVVSWAEAVEQDNAPHIQEGADGTRTETAFTEVDGVRWKVVTQFKVINKRVPKVVADRKKWVKFGSCKGEPAGPQVATTYVAEEVDMQFTRNRAGEQILDVQEDKQTAKTTSREHCRHCKGNDHWSTHCPYKVMYQLDEEADADKDTEKDRMAMGMRPDGRQIDRNRSDENTCRVTNLPQEMNEDELRDLFGKIGRVIRIFIARDKVTGLPKGFAFVTFESRDDAARAIAELNDIRMYHMVLKVEWTRPSN | not soluble
AHHHHHHGSKVEKYAIIFGKNPELGLYELKAFSKRFKLGVRILEIRFYGPNKSFAIIQAKEEIEKKFKWLGGALKLVRIVGEGLDTIENLEYSKLFTVSLYGKEDWKAWRKLGSQVKAVFKRKDSSKFFKPANVYSMPSELILKGFPEVKDVVFLFVDKDRVLVGETIRITNPFELKKLDVERPIVRPTLSIPPRLARIMINLSEVRKGNVLDPFCGTGTILVELLLQGLIAYGSDISQERINDARKNIEWIRKEFRIKQNASLRVCDVRRLKKCFRTRFDAIITEPYMGRPLKTKPTREEAIKIAKQLDRLYYQAFESFSDVLKRNAKVVFVFPAFNLAEGGVYRRNRPWLEELGFKVEYSILDIDEKHRIGRDIYVIRY | soluble
MQTFFIAPTDFGVGLTSISLGLVRTLERAGLKVGFFKPIAQPHPGDLGPERSTELMARTHGLKPPKPLGLAHVERMLGDGQLDELLEEIINLYQQAAVGKDVLVVEGMVPTRSASYAARVNLHLAKSLDAEVILVSAPENEVLTELSGRVELQAQLFGGPKDPKVLGVILNKVRTEESMEVFAARLKEHSPLLRNGDFRLLGCIPYRAELNAPRTRDVAELLGAQ | not soluble
MGNPTGFINVGRALPTERKAGERLSDWLEVYEEIPLKAVEKQASRCMDCGVPFCQSAKSEFAPAVAGCPVNNVIPEWNDLIYRGRWKDAIELLHKTNNFPEFTGRVCPAPCEGACVLGINADPVAIKLHEKEIIDHAFKEGWVVAQPPSARTGKNVAVIGSGPAGLAAAAQLNKAGHMVTVYERADRIGGLLMYGIPNMKLQKELVQRRVDILAEEGIVFVTNTEVGKDVSVEKLESDFDAIVLCIGATVPRDLPVEGRELNGVHFAMDFLKANTKSLLDSEHKDGQYINAQGKNVVVIGGGDTGTDCIGTSLRHQCTNALQLEIMPRPPEKREENNNPWPQWPKRLLVDYGQKEAIEIQGQDPRQYLVMTKKIESDVQGNVKAVHTVDITWERNDKGQMFPQEVAGSEKAIPADIVLIAMGFMGPEGGLVEQFGLEQDNRSNIAAEYDKFATSKQGVFAAGDGRRGQSLIVWAIDEGRRCAREVDSYLMGKSYLPLEHHHHHH | not soluble
MSSAWKTPRGSDAMPEIMVKIIGSKHFQYLVEKPKIKENDSLKTETQTMHQKPMTDNARQMSRDTPVPINFTDQQTTDNPDDVKEKKHPENNQKSENNQKLLTGANSSRFLDGNIPSQANVHCSSVPTGDQSLSYVHGIPRRKLRDWSLEQMVRGSSDQPEDIGQSPSGTTNEDAFLLALVRRELKSRPLSSNLLEKLQKELKILDPISSGFLLQSQLSRLFLKHEVPLQLPTVKILCQRFSKRGSPEMVNYEKLLWFLNSAASDYPQQNKAAADLRKTESHGTHSQSTPPQHSSSQPEVNRSLLEILKMALRTTNGRLNIDNLNLSFRKEDRSFSGCLPLPKVRAICGKHGLYLTLSLLETLLNHQDLGYQNEIKWQNFVEMLTRASSDLLSDLPTGKNEKKAPAPPMEPEVPEMSQSKTEHMKTPEEELQPESSPAETSACKDPLKPLKIRPVSQPFVNPAVKNKAEECETWIDRFRKLENALYLCDLSNTGVLEKERARRLIHNYNLIYNLSLSPQKIDQALRRFRSGENMLLEPALRYLKEL | not soluble
MGSDKIHHHHHHMKYEKIAFFRFFGRLNDFFRNSERIKTHRFTGFQTVKDRIEALGVPHVEVSLITLNGKPVGFDHMVEDGELFFVYPEFQNIEIPEDWLVTPRYIGEPRFVLDIHLGKLARLLRMLGFEAVFGEESDEKLCWMAVKKKAILLSRDTGLLKRKELVFGYYVRNTDPKEQLVEVVERYDLKKWMKPFTRCIECGVELEEVPKEAVKNRVPPKVYGFFNEFARCPVCGRIYWKGSHYDHMVEFIKSNINKG | not soluble
MSLEEVIEQLREANEPVPVPLELPDEDQLVEIEEQLFINIPFVFKEFLLTVSDVVYGSLEPVTVTDPQSHTYLPEVCATAWDLGVPRELIPICQDGEDYYCVEEDGTVLLWSAEEELVTEESWESVWHWARDVWLESEGHHHHHH | soluble
MDSPQYLFLDFEFTMPETKTNPDGFCPEIIEVGLVAVVDDQIIGQFSSYVKPLRFPQLTERCKSFLNITQEQIDRGMSFYELVSLLRQYDRDRPTTVMTWGSMDMKVLRENCQSARVEFPFTGEHRDLAMEYKRFFGNKNQTALRKAVQEYGNEAVGKAHCALDDAFTAYTIFRLVENDKKYLAKTKPPTIGERIDLSQLRKKFAL | not soluble
MRVLISPWGDFRKWKVAKYTFSGKSLESRSTLPIMVDVIRPQETIIIVPDTLSSDFSSQESMWNSVKDEVKEFTNQLGVEDVKIIVVPGSGSFSNGSFFGNPMDAYMFLLYELAKELPLEIKEVHLDVTHGLNYLTFFTVRVVQELLGILSIRKGVVLKTYSSDPFVDGSVRHLRVNLIEEATIDPKPLSEFLEGKFLVNYSMDRVEFGEIARRLKAKELDLGRINSWIASLKHGLPLVFTTMYPQEGEVEGVLEDVVAKFLEGFNVGEGKVVRSISLGKDFGSLAKLYFQLRVLKDLKEMYNLPKDEASVEELLKISEEIFTGRIKHSTKVELDNVANRVEKTEGWVKLSEFFKNANPQVDPRNFFAHAGLEANLVEVKRNGELYLRYTKGKVRWGGKEEKAEKVIREILTSRRWF | soluble
AHHHHHHGSFFLKTKIIEGRGSLEYLQKEAIGFERALILASSSMKRLGFLKEAEDYLREGGVEVISIAGLPPEPTKDVVDEFLPKVREFSPEILIAIGGGSVIDMAKALKVFYDVPGISFEEVAIKSRFSKPRPVPKLKTPLIAIPSTSGAGSEVSAASVIKVGDVKYTIVTPEIAPEVAILDPRLPEGMPPEVARNSGMDVLVHAIEAYVSKASSPFTDAMAVKAAKAVLEHLEESIRGDKNAREKIHYAATMAGIAFLNARLGLVHAMSHKAAWIGPHGLVNAILLPYVMEYNMARRREKYDALARELGFDNAEELLEEIKALNERLGIGPISSYVSEEEFLAKLDEMVERAYEDPLVNFNPVEPRKEDIRRIYERAFYGD | soluble
SVGTSCIPGMAIPHNPLDSCRWYVSTRTCGVGPRLATQEMKARCCRQLEAIPAYCRCEAVRILMDGVVTSSGQHEGRLLQDLPGCPRQVQRAFAPKLVTEVECNLATIHGGPFCLSLLGAGE | soluble
MSEHVFETEQVYPALGKVEIAPEVIEVIAGIAASEVDGIAQMRGNFAAGVAERFGKKHHGKGVKVDLRDDGVVIDLYCLVQFGASIPNVAKKVQENVRQALWNMTGLEASEVNVHIVGIQFEGGKQEQGVVEQ | not soluble
EQVVARKKLEESESRFRALVNASSDVVYRMNADWTVMRELEGRDFLTPAGTAMADWVETYTYREDRALVKATAAAAIEGKRIFELEHRVLKADGTIGWTFSRAIPILDEQGNIIEWFGSAADIT | not soluble
SEMLASLKEHPNELLDLLNSIITDFELAVDDLIENFMQSDFDALKLTMHTTKGMALNLGLKILASQALELETQLKMNQVPAIEQLQMLINRLQVNIHQGHRLRDELVKAQQNSEQVF | not soluble
MSQAHTPSAPLAEVYDVAVVGGGINGVGIAADAAGRGLSVFLCEQHDLAQHTSSASSKLIHGGLRYLEHYEFRLVREALAEREVLLAKAPHIVKPLRFVLPHRPHLRPAWMIRAGLFLYDHLGKREKLPASRGLRFTGSSPLKAEIRRGFEYSDCAVDDARLVVLNAISAREHGAHVHTRTRCVSARRSKGLWHLHLERSDGSLYSIRARALVNAAGPWVARFIQDDLKQKSPYGIRLIQGSHIIVPKLYEGEHAYILQNEDRRIVFAIPYLDRFTMIGTTDREYQGDPAKVAISEEETAYLLQVVNAHFKQQLAAADILHSFAGVRPLCDDESDEPSAITRDYTLSLSAGNGEPPLLSVFGGKLTTYRKLAESALTQLQPFFANLGPAWTAKAPLPGGEQMQSVEALTEQLANRYAWLDRELALRWARTYGTRVWRLLDGVNGEADLGEHLGGGLYAREVDYLCKHEWAQDAEDILWRRSKLGLFLSPSQQVRLGQYLQSEHPHRPRVHAALEHHHHHH | soluble
MGSDKIHHHHHHMTNVSGYHRPELHITAESGVLFAPAGVLLDDDTWHFFHQYRPSPDHGPRWAHQFAERTPFVWDICDDVLAPEGDETQVRAGSVVSNNGGVDLYFTSVVGPTSTIQLAHINNIRGTTELINEDELGLDPDVSRIGEVVGNTDGYVKFRSPCVIPGWEDQGNRDEGHSGWLMLAVTGPVEAPTVVVLDSPDGREWSITGPLSLNGLSGLESDEVLVAPRMIRLRDEVDHEIYDVLIVTIEQDGIDISGYLVGQLNGSEFDVKTPFTRIDFGHDFSRPRNTNYAETTIGYDFAHIFGLMNGVGRLDSPTEHLSWKEEGWANAISFPRIVTLQDGTVFQTPPEGLLDAIHESEAAAGWTGLCEIPSNSAVEVALKDQEGEIAATITHRHNQLVVDRSMNPNHAGDPHAIAPLTDDETDSLFIVVDGSTVEVFADGGYVSMASRVYFNNGPFSEFEVTTTGDASIIRQESHFPVDFSSVSLDIDDLTALMQFDENEPHEGPVR | not soluble
